Source: US9771395B2, “Enhanced influenza hemagglutinin binders” (UNIVERSITY OF WASHINGTON, priority 2014, dated 2017)
Positions count from the first letter of the chain named. Values after ≈ are worked out from the molar mass of the structure shown.

Legend:
CA09 virus [1] = test: Post-exposure (therapeutic) administration after CA09 challenge in BALB/c mice; assay type: in vivo; settings: for protection from lethality: 10 MLD50 CA09
Method: All animal experiments used in this study were approved by the University of Washington Institutional Animal Care and Use Committee. […] […] In a therapeutic setting, mice received the protein binder 0 (2 hours post-infection), 1, 2, 3, or 4 days post infection. The mice were monitored daily for weight loss and survival until 14 days post-infection. Animals that lost more than 30% of their initial body weight were euthanized in accordance with our animal protocol. The SCID (NOD SCID gamma, strain NOD.Cg-Prkdcscid Il2rgtm1Wjl/SzJ) mice and the MyD88−/−(strain B6.129P2(SJL)-Myd88tm1.1Defr/J) mice were purchased from Jackson Laboratory.

[2] = system: human (H1N1) and avian (H5N1) influenza viruses; test: microbe, parasite or virus in culture; assay type: cell-based, Influenza virus
CA09 virus [3] = test: Pre-exposure administration and CA09 challenge in MyD88-/- mice; assay type: in vivo; settings: 6.0 mg/kg IN 2 hrs before CA09
Method: (§1) All animal experiments used in this study were approved by the University of Washington Institutional Animal Care and Use Committee. […] Two to forty-eight hours later, the mice were anesthetized by isoflurane and challenged intranasally with 10 MLD50 (fifty percent mouse lethal dose) of either A/California/07/09 (H1N1) (CA09) or A/PR/8/34 (H1N1) (PR8). In a therapeutic setting, mice received the protein binder 0 (2 hours post-infection), 1, 2, 3, or 4 days post infection. The mice were monitored daily for weight loss and survival until 14 days post-infection. Animals that lost more than 30% of their initial body weight were euthanized in accordance with our animal protocol. The SCID (NOD SCID gamma, strain NOD.Cg-Prkdcscid Il2rgtm1Wjl/SzJ) mice and the MyD88−/−(strain B6.129P2(SJL)-Myd88tm1.1Defr/J) mice were purchased from Jackson Laboratory.

CA09 virus [4] = test: Pre-exposure administration and CA09 challenge in SCID mice; assay type: in vivo, NOD SCID gamma (SCID) mice; settings: 6.0 mg/kg IN 2 hrs before CA09
Method: as §1

[5] = system: H1N1 A/California/07/2009 (CA09) virus; test: Pre-exposure administration and lethal influenza challenge in BALB/c mice; assay type: in vivo
Method: as §1

[6] = biological target: Hemagglutinin (HA) of pandemic 2009 California H1N1 (Influenza A virus, UniProt C3W5S1)
H5 HA = assay type: binding, Influenza virus
CA09 virus [7] = system: CA09 virus; parameters: species or system BALB/c mice; settings: mouse, in vivo
[8] = Bio-Plex inflammatory cytokines in lung homogenates after protein administration (no infection); assay type: in vivo, BALB/c mice; settings: single IN dose 6.0 mg/kg
Method: The concentrations of cytokines in lung tissue were measured. […] Lungs were thawed, weighed and lysed using the Bio-Plex® Cell Lysis Kit (Bio-Rad, Hercules, Calif.). The levels of interleukin (IL)-6, IL-10. IL-12(p70), interferon (IFN)-γ, and tumor necrosis factor (TNF)-α in the lysate were measured using a Bio-Plex) multiplex bead array kit (Bio-Rad, Hercules, Calif.). The Bio-Plex® assay was performed in accordance with the manufacturer's instructions.

[9] = system: Group I Hemagglutinin (HA) subtypes; assay type: binding, Influenza virus
H2 HA = assay type: binding, Influenza virus
CA09 virus [10] = test: Bio-Plex inflammatory cytokines in lung homogenates after CA09 challenge; assay type: in vivo, BALB/c mice; settings: 6.0 mg/kg IN 24 hrs before or after CA09; day 2 p.i.; P≦0.00119
Method: The concentrations of cytokines in lung tissue were measured. On days 2 and 4 post-infection, 8 mice per group were sacrificed and whole lung tissue was collected and immediately frozen. Lungs were thawed, weighed and lysed using the Bio-Plex® Cell Lysis Kit (Bio-Rad, Hercules, Calif.). The levels of interleukin (IL)-6, IL-10. IL-12(p70), interferon (IFN)-γ, and tumor necrosis factor (TNF)-α in the lysate were measured using a Bio-Plex) multiplex bead array kit (Bio-Rad, Hercules, Calif.). The Bio-Plex® assay was performed in accordance with the manufacturer's instructions.

[11] = system: A/California/07/2009 (CA09) influenza virus; parameters: species or system ferrets; settings: in vivo
[12] = mouse, in vivo
[13] = ELISA for serum binding antibodies against HB36.6 after repeat dosing; assay type: in vivo, mice; settings: 3.0 mg/kg IN doses two weeks apart
Method: Plates were blocked with 5% nonfat milk powder in PBS for 1 h at room temperature, and then washed three times with wash buffer (PBS-T; phosphate-buffered saline containing 0.05% Tween 20). Two-fold serial dilutions of samples were added to the wells and plates were incubated for 1 hr at room temperature. Following three washes with PBS-T, plates were incubated with horseradish-peroxidase conjugated goat anti-mouse IgG (1/3,000 dilution) secondary antibodies (Thermo Scientific Pierce) for 1 h at room temperature. After five washes with PBS-T, TMB substrate (KPL) was added to the wells for 30 min at room temperature.

CA09 virus [14] = test: Lung immunohistochemistry for influenza nucleoprotein (NP) after CA09 challenge; assay type: in vivo, BALB/c mice
Method: During in vivo challenge experiments, lungs were removed from mice and immersed in 10% neutral buffered formalin. Following fixation, tissues were removed from formalin and placed in paraffin. Immunohistochemical staining was performed on the Leica Bond Automated Immunostainer. Sections were deparaffinized in Leica Bond Dewax Solution (Leica Cat No. AR922) and rehydrated through 100% EtOH. After antigen retrieval with EDTA buffer pH 9.0 (Lieca Bond Epitope Retrieval Solution 2, Cat No AR9640) at 100° C. for 20 minutes and blocking endogenous peroxidase activity with 3.0% H2O2 for 5 minutes and blocking with 10% Normal Donkey Serum in TBS for 20 minutes the sections were incubated with Goat anti Influenza A Virus, (Meridian Life Science Inc. Cat No. B65141G) at 1:2000 or Normal Goat IgG, isotype control. (Invitrogen Cat No. 02-6202) at (1:5000 dilution) both in Bond Primary Antibody Diluent (Leica Cat No. AR9352) for 30 minutes at room temperature. Sections were then incubated with Rabbit anti Goat IgG (Jackson ImmunoResearch Cat. No. 305-005-045) 1:1500+5% Normal Donkey Serum for 8 minutes at RT followed by incubation with Goat anti Rabbit Poly-HRP polymer secondary detection (Leica Cat No DS9800) for 8 minutes at room temperature. Sections were then incubated with Leica Bond Mixed Refine DAB substrate detection for 10 minutes at room temperature. (Leica Cat No DS9800). […]

[15] = 0.01 mg/kg IN two hours prior to lethal CA09 challenge
[16] = 0.1 mg/kg IN two hours prior to lethal CA09 challenge
[17] = 1.0 mg/kg IN two hours prior to lethal CA09 challenge

## CCOC(=O)C1=C[C@@H](OC(CC)CC)[C@H](NC(C)=O)[C@@H](N)C1 [oseltamivir, reference compound]
CA09 virus [1]; 5 mg/kg/day by oral gavage, twice daily for 5 days starting day +1 p.i., 3 MLD50 CA09
  survival: 0%
CA09 virus [1]; 5 mg/kg/day by oral gavage, twice daily for 5 days starting day +1 p.i., p<0.001
  delay of time to death compared to controls: about 2.5 days

## NC(=O)c1ncn([C@@H]2O[C@H](CO)[C@@H](O)[C@H]2O)n1 [Ribavirin, 1- -D-ribofuranosyl-1,2,4-triazole-3-carboxamide, reference compound]
[2]; Influenza A virus, MDCK, read-out: EC50 range
  EC50: 15 to 18 µg/mL (≈ 61.4 to 73.7 µM)

## lysozyme [reference compound]
CA09 virus [3]
  survival (protected mice): 0%
  weight loss: significant weight loss
CA09 virus [4]
  survival (protected mice): 0%
  weight loss: significant weight loss
[5]; 6.0 mg/kg, 48 or 2 hrs before CA09 challenge
  protection: no protection

B1: HB36.6: HA stem binding protein, variant of HB36.5 with nine substitutions (SEQ ID NO: 3); FLAG-tagged in the studies (protein)
chain: SNAMDGQQLNRLLLENIGAWDPFGLGKDAYTYQAAEVLKAVYETNRAFDLAMRIHWIYNFAFKRRIPFARTQKLARRLLELKQAASSPLP
modifications: FLAG tag; (1)..(5) optionally absent; (86)..(90) optionally absent
notes: FLAG-tagged in the studies
[6]
  Kd stronger than HB36.5: roughly 6 fold
  Kd tighter than any known de novo binder: 5 fold
[6]; read-out: Kd against pandemic 2009 California H1N1
  Kd: 3.1 nM
H5 HA
  affinity increase over HB36.5: > 10 fold
CA09 virus [7]
  reduction in mean viral titers in nasal washes vs untreated controls: 1-3 log-fold
[8]
  cytokine levels by 48 hrs: dropped to pre-administration levels
  cytokine levels compared with 1u84: significantly lower than levels induced by 1u84
[2]
  50% effective concentration (EC50) range: 0.18 to 12.0 µg/mL
CA09 virus [1]; 3.0 mg/kg IN daily for 4 days (days +1-4 p.i.)
  protection from lethality: 100%
CA09 virus [1]; single IN dose 3.0 mg/kg 2 hours p.i.
  protection from lethality: 100%
CA09 virus [1]; single IN dose 3.0 mg/kg +1 day p.i.
  protection from lethality: 60%
CA09 virus [1]; single IN dose 10 mg/kg on day +1 p.i., 3 MLD50 CA09
  rate of survival: 70%
CA09 virus [1]; single IN dose 1.0-10 mg/kg on day +1 p.i., CA09, dose-responsive
  effect of a single dose on survivors: increase in the number of survivors
[9]
  affinity compared with HB36.5: higher affinity than HB36.5
  cross-reactivity against Group I HA subtypes: broadly cross-reactive
  off-rates (dissociation): did not show well-defined off-rates
H2 HA
  affinity increase over HB36.5: greater than 40 fold
CA09 virus [10]
  inflammatory cytokine response in lung (IL-6, IL-10, IL-12p70, TNF-α, IFN-γ): several cytokines were significantly lower than in the controls
[11]
  protection against influenza challenge in ferrets: affords prophylactic protection
CA09 virus [3]
  survival (protected mice): 90%
  weight loss: minimal weight loss
[12]
  detection of protein in lung tissue: readily detected throughout the lung tissue
[13]; after the 1st and 2nd dose
  serum binding antibodies against HB36.6: No antibodies against HB36.6 were detected
[13]; by 3rd dose
  animals with low levels of antibody responses: 4 of the 10
CA09 virus [14]; 6.0 mg/kg IN 1 day before or post-infection, day 2 and day 4 p.i.
  viral replication in the lungs vs untreated controls: significantly less viral replication
CA09 virus [14]; 6.0 mg/kg IN as therapeutic, day 4, P≦0.0263
  NP positive (infected) cells in lung tissue vs controls: significantly lower number of infected cells
CA09 virus [4]
  survival (protected mice): 100%
  weight loss: minimal weight loss
[5]; [15]
  mice recovered and survived: 20%
  survived longer than controls: 2 to 3 days
  weight loss: exhibited weight loss
[5]; [16]
  survival: 100%
  weight loss: little
[5]; [17]
  survival: 100%
  weight loss: no
[5]; lethal CA09 challenge 24 hours after the 4th dose (3.0 mg/kg IN), data not shown
  protection from mortality and morbidity: 100%
[5]; same dose (6.0 mg/kg) delivered intravenously (IV), data not shown
  protection: no protection
[5]; single IN dose 6.0 mg/kg at 2, 24 or 48 hours before 10 MLD50 CA09
  survival: 100%
[5]; single IN dose 6.0 mg/kg up to 48 hours before 10 MLD50 CA09
  weight loss: moderate to low

B2: HB36.5: stable, broadly cross-reactive HA binding protein (SEQ ID NO: 4), parent of HB36.6 (protein)
chain: B1 chain with N16W, T31D, Q33E, N45E, R46S, R65Q, R70H, T71A
modifications: (1)..(5) optionally absent; (86)..(90) optionally absent
[9]
  cross-reactivity against Group I HA subtypes: broadly cross-reactive

B3: 1u84: scaffold protein (PDB ID 1u84) that HB36.6 is modeled on; non-protective control (protein)
chain: SNAMDGQQLNRLLLEWIGAWDPFGLGKDAYDVEAASVLQAVYETEDARTLAARIQSIYEFAFDEPIPFPHCLKLARRLLELKQAASCPLP
[8]
  cytokine levels by 48 hrs: dropped to pre-administration levels
CA09 virus [1]; daily administration after CA09 challenge
  protection: no protection
CA09 virus [3]
  survival (protected mice): 0%
  weight loss: significant weight loss
CA09 virus [4]
  survival (protected mice): 0%
  weight loss: significant weight loss
